{
  "source": "patent US7041498",
  "about": "(SALK INSTITUTE FOR BIOLOGICAL STUDIES, dated 2006)",
  "data": [
    {"biological_target": "T1, GAL4 linked to the FAR ligand binding domain (GAL4-FAR184-469) (yeast; rat, UniProt P04386 1-147)", "T1 construct": "range 1-147; Two-hybrid bait expressed in CV-1 cells from a CMV promoter vector; also called GAL4-FAR chimera; FAR LBD", "assay": "mammalian two-hybrid in CV-1 cells, GAL4 UAS luciferase reporter", "values": [
      {"binder": "VP16 transactivation domain linked to the LBD of mouse PPARα (VP-PPAR155-468) (other, range 155-468; Two-hybrid prey expressed in CV-1 cells) YCRFHKCLSVGMSHNAIRFGRMPRSEKAKLKAEILTCEHDLKDSETADLKSLGKRIHEAYLKNFNMNKVKARVILAGKTSNNPPFVIHDMETLCMAEKTLVAKMVANGVEDKEAEVRFFHCCQCMSVETVTELTEFAKAIPGFANLDLNDQVTLLKYGVYEAIFTMLSSLMNKDGMLIAYGNGFITREFLKNLRKPFCDIMEPKFDFAMKFNALELDDSDISLFVAAIICCGDRPGLLNIGYIEKLQEGIVHVLKLHLQSNHPDDTFLFPKLLQKMVDLRQLVTEHAQLVQVIKKTESDAALHPLLQEIYRDMY", "binding result": "no binding"},
      {"binder": "VP16 transactivation domain linked to the LBD of RARα (VP-RAR156-462) (other, range 156-462) ESVRNDRNKKKKEVPKPECSESYTLTPEVGELIEKVRKAHQETFPALCQLGKYTTNNSSEQRVSLDIDLWDKFSELSTKCIIKTVEFAKQLPGFTTLTIADQITLLKAACLDILILRICTRYTPEQDTMTFSDGLTLNRTQMHNAGFGPLTDLVFAFANQLLPLEMDDAETGLLSAICLICGDRQDLEQPDRVDMLQEPLLEALKVYVRKRRPSRPHMFPKMLMKITDLRSISAKGAERVITLKMEIPGSMPPLIQEMLENSEGLDTLSGQPGGGGRDGGGLAPPPGSCSPSLSPSSNRSSPATHSP", "binding result": "no binding"},
      {"binder": "VP16 transactivation domain linked to the LBD of VDR (VP-VDR92-427) (other, range 92-427) EFILTDEEVQRKREMILKRKEEEALKDSLRPKLSEEQQRIIAILLDAHHKTYDPTYSDFCQFRPPVRVNDGGGSHPSRPNSRHTPSFSGDSSSSCSDHCITSSDMMDSSSFSNLDLSEEDSDDPSVTLELSQLSMLPHLADLVSYSIQKVIGFAKMIPGFRDLTSEDQIVLLKSSAIEVIMLRSNESFTMDDMSWTCGNQDYKYRVSDVTKAGHSLELIEPLIKFQVGLKKLNLHEEEHVLLMAICIVSPDRPGVQDAALIEAIQDRLSNTLQTYIRCRHPPPGSHLLYAKMIQKLADLRSLNEEHSKQYRCLSFQPECSMKLTPLVLEVFGNEIS", "binding result": "no binding"}
    ]}
  ]
}
